Data as given in the supplement of paper PMC9170038.

System: MS2 coat protein
Experiment: apparent KD of MS2 coat protein; designed switch direction (-1 OFF switch, 1 ON switch): -1; higher = weaker reporter binding
Outline: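 Designed RNA switches sharing common flanks were transcribed on Illumina chips by stalled E. coli RNA polymerase. They were titrated with SNAP-549-labelled MS2 coat protein, from 0.7 or 1.5 nM doubling to 3 µM, in Tris-HCl pH 7.5 buffer with KCl, MgCl2, BSA, DTT, tRNA and Tween-20. Titrations ran without input, with 200 uM small-molecule ligand, or with an oligonucleotide input. The apparent KD of each design is the median over its clusters, after curve-fitting of normalised cluster fluorescence.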

[1] = input ligand: microRNA oligo, concentration not stated
[2] = Eterna round: R95, input ligand: microRNA oligo, concentration not stated
[3] = Eterna round: R95, input ligand: FMN 200 uM
[4] = Eterna round: R95, input ligand: none

| Sequence | apparent KD of MS2 coat protein (input ligand: FMN 200 uM) [nM] | apparent KD of MS2 coat protein (input ligand: none) [nM] | apparent KD of MS2 coat protein [1] [nM] | apparent KD of MS2 coat protein [2] [nM] | apparent KD of MS2 coat protein [3] [nM] | apparent KD of MS2 coat protein [4] [nM] |
| --- | --- | --- | --- | --- | --- | --- |
| CGAUGAGGAGUGAGGAUAUCGUGUUCGAAAGAACGUGAGAAGGCACAUGAGGAUCACCCAUGUGAUUCUUGUCG [Omei Ex4B A18] (Eterna round: R97, puzzle: Brourd's mod of Exclusion 4) | 77.6 | 22.2 | – | – | – | – |
| CGAUGCUCGAGUCCACAUGAGGAUCACCCAUGUCGAGUUAGCGAGGAUAUCGGAGACACAUAGUAUGAGAAGGCGCGAACCUGA [Ex NG3 #20] (Eterna round: R96, puzzle: Exclusion NG 3) | 10 | 13.6 | 11.3 | – | – | – |
| CGAUGCUCGUGGCCACAUGAGGAUCACCCAUGUCGAGUUAGCGAGGAUAUCGGUAGCACAUAUCACGAGAAGGCGCGAACCUGA [Ex NG3 #29] (Eterna round: R96, puzzle: Exclusion NG 3) | 32.3 | 12 | 10.9 | – | – | – |
| CGCCAAAGGAAGGAUAUGCUAGACGAAAGUCUAGCAGAAGGUCCUACAUGAGGAUCACCCAUGUGUCCUAGGCG [Mat - Exclusion 6 - Eli Mod - D10] (Eterna round: R97, puzzle: Exclusion 6) | 49.1 | 46.1 | – | – | – | – |
| CGCCGAGUGUUAGGAUAUCACAAGCAUAAGCGGUGAGAAGGAACAUGAGGAUCACCCAUGUACUGUCCCAUCGGGACAGGUUUC [Ribeon] (Eterna round: R96, puzzle: Exclusion NG 1) | 170 | 70.8 | 54 | – | – | – |
| CGCGAGGGAGGAUAUGCACUCAGUGAUCACGCCCAAAUUCGACAUGAGGAUCACCCAUGUAGAAGGCCCGGCUA [EX2 B.15] (Eterna round: R97, puzzle: Exclusion 2) | 21.1 | 19 | – | – | – | – |
| CGCUGGACAGGAUAUGUUCUUGGGCACUUGAGGAUCACCCAAGUCAUCGGGACAUCAGGCACAGAAGGGUUUAUGG [salish99_ex5_r4_026] (Eterna round: R97, puzzle: Exclusion 5) | 19.1 | 21.1 | – | – | – | – |
| CGGAUGUCAGGAUAUCGUGCAUACAACGAAAGUUCUAUGUGCGAGAAGGGACAUGAGGAUCACCCAUGUUUACG [Omei Ex4 A11] (Eterna round: R97, puzzle: Exclusion 4) | 206 | 34.9 | – | – | – | – |
| CGGAUGUGAGGAUAUACAUGAGGAUCACCCAUGUGAGCCAGCUAGCUGACUGGCUCGUGUAGAAGGCACGUCUG [JL-ex3-2.16 Brourd mod] (puzzle: Exclusion 3) | – | – | – | 14.2 | – | – |
| CGGCAUGUACAAGGAUAUCAGCACGAUUAGUGCUGAGAAGGUGUAACAUGAGGAUCACCCAUGUAGAUCAUUAACCGAUUAAUU [ENG1/9-A2] (Eterna round: R96, puzzle: Exclusion NG 1) | 145 | 60.7 | 64.3 | – | – | – |
| CGGCUACGAUGAGGAUAUACGCACAUGAGGAUCACCCAUGUAAAUCACGGGUAAAGAUCGUCAUCGUAGAAGGCAUAAGGGCCC [Ormale] (Eterna round: R96, puzzle: Exclusion NG 2) | 33 | 30.1 | 23.9 | – | – | – |
| CGUAAAAGGAAGGAUAUGCUAGACGAAAGUCUAGCAGAAGGUCCUACAUGAGGAUCACCCAUGUGUCCUAUACG [Mat - Exclusion 6 - Eli Mod - D12] (Eterna round: R97, puzzle: Exclusion 6) | 80.5 | 49.8 | – | – | – | – |
| CGUAUGUGAGGAUAUGACAAUGGUAUCUUCGGAUACCAUUGUCAGAAGGAACAUGAGGAUCACCCAUGUAGAUC (Eterna round: R96, puzzle: Exclusion 4) | 161 | 54.5 | 43.1 | – | – | – |
| CGUAUGUGAGGAUAUGACAAUGGUAUCUUCGGAUACCAUUGUCAGAAGGAACAUGAGGAUCACCCAUGUAGAUC (puzzle: Exclusion 4) | – | – | – | 44.8 | – | – |
| CGUGCGUAUGUGAGGAUAUGCUGGUCCUUGGCUCGGCAGAAGGCACAUGAGGAUCACCCAUGUGGUGUCGUACG [salish99_Bmod_ex4_062] (puzzle: Brourd's mod of Exclusion 4) | – | – | – | 152 | 53.4 | 171 |
| CGUGUACGAGGAUAUAGAUUGGAUGACAUGAGGAUCACCCAUGUGAUCAAUCUAUUUGGUUUAGAAGGUGUACAUG [JR_Ex5_Sub050] (Eterna round: R97, puzzle: Exclusion 5) | 14.1 | 14.8 | – | – | – | – |
| CUAAGUUGGUAAGGAUAUCCUACAUUAUUCUGACCCGUGCAAGCUACAUGAGGAUCACCCAUGUGGGAGAAGGUGCGUUAAUGU [Design 5] (Eterna round: R96, puzzle: Exclusion NG 2) | 16.3 | 20.3 | 13.8 | – | – | – |
| CUAGACCGAGGAUAUAUUAUGUGAAACAUGAGGAUCACCCAUGUAAUAUGAUGGAUGUAAAUAGAAGGCGGUCUAG [Mat - Exclusion 5 - JL mod - D29] (puzzle: Exclusion 5) | – | – | – | 53.4 | 31.4 | 23 |
| CUAGAUCUUCGGAUCUAGUACAUGAGGAUCACCCAUGUGACGAGUUGAUCCUCAAACAAGCUUUUUGCUCGUCUUAU [Sensor v3 - Turn-off variant 1 - 17] (puzzle: Sensor v3, turn-off variant 1) | – | – | – | 16 | 19.9 | 22.1 |
| CUAGUAUAUCAGGAUAUGAUAGUGUAUAGUAUAUCAGAAGGGAUGACAUGAGGAUCACCCAUGUUAAGGGAUGA [JR_Ex6_Sub050] (Eterna round: R97, puzzle: Exclusion 6) | 52.4 | 46.1 | – | – | – | – |
| CUAGUAUAUCAGGAUAUGAUAUUGUGUAGUAUAUCAGAAGGGAUGACAUGAGGAUCACCCAUGUUAUGGGAUGA [JR_Ex6_Sub048] (Eterna round: R97, puzzle: Exclusion 6) | 273 | 121 | – | – | – | – |
| CUAGUCCGAGGAUAUAUUAAGUGAUACAUGAGGAUCACCCAUGUAAUUUAAUGGAAAUAAAUAGAAGGCGGACUAG [Mat - Exclusion 5 - JL mod - D52] (puzzle: Exclusion 5) | – | – | – | 46.2 | 44.7 | 53.3 |
| CUCAUGUGAGGAUAUGUGAUCAACCUUCUAUAUAGAUGAUUACAGAAGGCACAUGAGGAUCACCCAUGUAGAUC [Ex4 - 3 - 23] (puzzle: Exclusion 4) | – | – | – | 21.1 | – | – |
